The test concerns the target ArsR6 (Flag-tagged, in the complemented strain C[change]) (Brucella suis S2). In words: cross-linking.

As to “ArsR6 (Flag-tagged, in the complemented strain C[change]) (natural protein)”, the stoichiometry N stood at 2.

By stoichiometry N is commonly meant the number of molecules, sites or subunits per partner or assembly.

Source of the values: paper PMC8509827.
